According to CN108948205A (BEIJING JINDAI BIOTECHNOLOGY CO LTD, dated 2018):

Columns and labels:
[1] = molecular target: T1, IDH1 R132H突变抗原多肽 (编号 U6184CB080-D); test: SPR, Biacore 8k, peptide on CM5 chip; reference H09
T1 sequence (peptide): KPIIIGHHAYGDQYC

[2] = molecular target: T2, IDH1野生型 (wild-type IDH1 in glioma tissue sections) (UniProt O75874 2-414); test: immunohistochemistry on glioma paraffin sections
T2 construct: Endogenous protein in patients' glioma paraffin sections; also called IDH1 R132H焦磷酸测序野生型样本; 不携带IDH1 R132H突变的胶质瘤样本

[3] = molecular target: T3, IDH1 R132H (mutant IDH1 in glioma tissue sections) (UniProt O75874 2-414); test: immunohistochemistry on glioma paraffin sections
T3 construct: Endogenous protein in patients' glioma paraffin sections; also called IDH1突变; IDH1 R132H突变
T3 sequence (O75874 2-414 R132H limits assumed): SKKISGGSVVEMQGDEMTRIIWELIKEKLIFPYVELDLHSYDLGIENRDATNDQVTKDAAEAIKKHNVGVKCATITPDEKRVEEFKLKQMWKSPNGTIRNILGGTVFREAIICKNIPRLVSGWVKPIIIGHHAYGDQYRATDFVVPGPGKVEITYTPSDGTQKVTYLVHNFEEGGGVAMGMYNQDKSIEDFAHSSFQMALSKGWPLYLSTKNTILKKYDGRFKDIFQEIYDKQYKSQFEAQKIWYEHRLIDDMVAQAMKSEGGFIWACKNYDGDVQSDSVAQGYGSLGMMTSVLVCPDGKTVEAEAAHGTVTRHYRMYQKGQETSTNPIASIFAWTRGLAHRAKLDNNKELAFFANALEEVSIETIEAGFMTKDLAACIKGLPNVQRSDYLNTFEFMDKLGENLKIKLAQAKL

T2 sequence (O75874 2-414 limits assumed): as the sequence (O75874 2-414 R132H limits assumed) above, with H131R counted along it

fold lower 亲和力平衡常数 (KD) against H09 [1]: 10 fold | binding result [2]: no binding | binding result [3]: binds
B1: 10G5-1单克隆抗体 (anti-IDH1 R132H monoclonal antibody secreted by hybridoma 10G5-1, CGMCC No.15783) (antibody, V domains shown)
VH: QVQLQQPGTELVKPGASVHLSCKASGYTFTTYWMHWVKQRPGQGLEWIGDINPSNGETYYNEKFRNKATLTVDKSSRTAYMHLSSLSSEDSAVYYCARGFKDYWGQGTTLTVSS
VL: DVLMTQTPLSLPVSLGDQASISCRSSQTILYSDGVTYLEWYLQKPGQSPKLLIYKVSSRFSGVPDRFSGSGSGTDFTLKISRVVAEDLGIYYCFQGSHVPFTFGSGTKLEIK
notes: Mouse (BALB/c) hybridoma antibody purified on protein A; also called 10G5-1抗体; 1OG5-1抗体
